This data set has as its system Escherichia coli TOP10. The experiment in a line: shrunken log2 fold change of peptide-encoding DNA abundance (4.5 h post-induction vs induction); higher = less antimicrobial activity (less host growth inhibition). The conditions noted are these: time post-induction: 4.5 h; library: site-saturation at positions 5, 18, 19, 20.
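Note: peptides expressed intracellularly from a pBAD plasmid library in pooled LB shake-flask culture, induced with 0.3% L-arabinose, DNA abundance read by NGS, three biological replicates, DESeq2 with apeglm shrinkage.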

Turning to RRIRNRPPRLPRPRPRPSSYPRP, the “shrunken log2 fold change” value is -0.388.

For the sequence RRIRVRPPRLPRPRPRPNYTPRP, the “shrunken log2 fold change” value was -0.533.

For the sequence RRIRWRPPRLPRPRPRPPITPRP, the “shrunken log2 fold change” value was -0.173.

Take RRIRGRPPRLPRPRPRPAWMPRP: the “shrunken log2 fold change” value is 0.554.

Regarding RRIRERPPRLPRPRPRPPHYPRP, the “shrunken log2 fold change” value is -0.159.

As for RRIRDRPPRLPRPRPRPLQFPRP, the “shrunken log2 fold change” value is 0.0246.

Regarding RRIRERPPRLPRPRPRPDKDPRP, the “shrunken log2 fold change” value is -0.433.

For RRIRHRPPRLPRPRPRPPSTPRP, the “shrunken log2 fold change” value was -0.0909.

Turning to RRIRRRPPRLPRPRPRPKPKPRP, the “shrunken log2 fold change” value came out at 0.273.

As to RRIRTRPPRLPRPRPRPIWGPRP, the “shrunken log2 fold change” value was -0.144.

RRIRPRPPRLPRPRPRPWCCPRP: the “shrunken log2 fold change” value is -0.0996.

With RRIRIRPPRLPRPRPRPECDPRP, the “shrunken log2 fold change” value was 0.0126.

For RRIRQRPPRLPRPRPRPWIGPRP, the “shrunken log2 fold change” value was -0.013.

For the sequence RRIRERPPRLPRPRPRPVWTPRP, the “shrunken log2 fold change” value was -0.00115.

In the case of RRIRIRPPRLPRPRPRPSQSPRP, the “shrunken log2 fold change” value was -0.0979.

As for RRIRRRPPRLPRPRPRPGMTPRP, the “shrunken log2 fold change” value worked out at 0.129.

For RRIRFRPPRLPRPRPRPNTHPRP, the “shrunken log2 fold change” value is -0.579.

Regarding RRIRMRPPRLPRPRPRPGLSPRP, the “shrunken log2 fold change” value is 0.795.

Regarding RRIRFRPPRLPRPRPRPKDMPRP, the “shrunken log2 fold change” value is -0.0249.

Turning to RRIRRRPPRLPRPRPRPCIEPRP, the “shrunken log2 fold change” value is 0.131.

Regarding RRIRSRPPRLPRPRPRPHQSPRP, the “shrunken log2 fold change” value is -0.198.

For RRIRLRPPRLPRPRPRPDFHPRP, the “shrunken log2 fold change” value is -0.206.

RRIRMRPPRLPRPRPRPLVRPRP: the “shrunken log2 fold change” value turned out to be 0.51.

Regarding RRIRKRPPRLPRPRPRPASCPRP, the “shrunken log2 fold change” value is 0.431.

Turning to RRIRNRPPRLPRPRPRPERIPRP, the “shrunken log2 fold change” value was -0.00936.

Take RRIRDRPPRLPRPRPRPFFYPRP: the “shrunken log2 fold change” value is -0.0714.

As to RRIRNRPPRLPRPRPRPQWIPRP, the “shrunken log2 fold change” value was -0.446.

For RRIRNRPPRLPRPRPRPYEPPRP, the “shrunken log2 fold change” value was -0.0287.

In the case of RRIRGRPPRLPRPRPRPNNEPRP, the “shrunken log2 fold change” value was determined as 0.306.

As for RRIRKRPPRLPRPRPRPTYVPRP, the “shrunken log2 fold change” value was -0.201.

On to RRIRLRPPRLPRPRPRPDFDPRP, for which the “shrunken log2 fold change” value was -0.047.

As for RRIRNRPPRLPRPRPRPYHFPRP, the “shrunken log2 fold change” value is -0.309.

Consider RRIRWRPPRLPRPRPRPTKLPRP, for which the “shrunken log2 fold change” value was found to be 0.156.

As for RRIRSRPPRLPRPRPRPHACPRP, the “shrunken log2 fold change” value is -0.0756.

As for RRIRRRPPRLPRPRPRPYPVPRP, the “shrunken log2 fold change” value worked out at 0.0514.

For the sequence RRIRRRPPRLPRPRPRPKSMPRP, the “shrunken log2 fold change” value was determined as 0.0108.

With RRIRSRPPRLPRPRPRPPAMPRP, the “shrunken log2 fold change” value came to 0.344.

Turning to RRIRMRPPRLPRPRPRPKSRPRP, the “shrunken log2 fold change” value was 0.0662.

For the sequence RRIRLRPPRLPRPRPRPLHDPRP, the “shrunken log2 fold change” value is -0.149.

RRIRFRPPRLPRPRPRPNCGPRP: the “shrunken log2 fold change” value is -0.0249.

Regarding RRIRRRPPRLPRPRPRPKWEPRP, the “shrunken log2 fold change” value turned out to be 0.364.

Consider RRIRERPPRLPRPRPRPLQSPRP, for which the “shrunken log2 fold change” value was -0.306.

With RRIRRRPPRLPRPRPRPMCWPRP, the “shrunken log2 fold change” value turned out to be 0.0358.

On to RRIRTRPPRLPRPRPRPVANPRP, for which the “shrunken log2 fold change” value was determined as 0.133.

In the case of RRIRVRPPRLPRPRPRPANEPRP, the “shrunken log2 fold change” value is -0.174.

Take RRIRRRPPRLPRPRPRPLTYPRP: the “shrunken log2 fold change” value was -0.204.

Take RRIRGRPPRLPRPRPRPYSFPRP: the “shrunken log2 fold change” value amounted to 0.0271.

With RRIRGRPPRLPRPRPRPRMTPRP, the “shrunken log2 fold change” value turned out to be 1.26.

For RRIRHRPPRLPRPRPRPMSYPRP, the “shrunken log2 fold change” value was -0.0194.

Consider RRIRVRPPRLPRPRPRPNQIPRP, for which the “shrunken log2 fold change” value is -0.1.

The values above are taken from the supplement of paper PMC9112550, “Optimization of the antimicrobial peptide Bac7 by deep mutational scanning” (BMC Biology, 2022).
